{"source": "patent US20100159475", "key": {"[1]": {"system": "T1, Fluoresceinyl-DLDVPIPGRFDRRVpSVAAE (phosphorylated, fluorescein-tagged RII peptide)", "T1 sequence": "DLDVPIPGRFDRRVSVAAE"}, "[2]": {"system": "autoinhibitory peptide"}}}
{"substance": "Recombinant calcineurin", "values": [{"measurement": "amount of dephosphorylated peptide in the unbound fraction after titanium oxide (mass spectrometry)", "setting": "[1]", "value": "30-fold increase in the amount of dephosphorylated peptide in the unbound fraction with the addition of recombinant calcineurin"}, {"measurement": "dephosphorylation of the peptide (fluorimetric calcineurin assay)", "setting": "[1]", "value": "Calcineurin in normal buffer resulted in dephosphorylation of the peptide in a dose-dependent manner"}, {"measurement": "relative amount of dephosphorylated to phosphorylated peptide (mass spectrometry)", "setting": "[1]", "value": "recombinant calcineurin stimulated a dose-responsive increase in the relative amount of dephosphorylated to phosphorylated peptide"}, {"measurement": "dephosphorylation by 0.2 ng calcineurin (fluorimetric calcineurin assay)", "setting": "[2]", "value": "Dephosphorylation by 0.2 ng calcineurin was significantly reduced (ANOVA) by each of these conditions"}]}
